Assay results as given in paper PMC9146559, “Recombinant Integrin β1 Signal Peptide Blocks Gliosis Induced by Aβ Oligomers” (International Journal of Molecular Sciences, 2022).

Target: T1, amyloid β protein fragment 1–42 (synthetic Aβ peptide, oligomer preparation) (UniProt P05067 672-713)
T1 construct: amyloid beta 1-42, the cut product of the amyloid precursor protein; One preparation that holds monomeric and oligomeric forms, which are seen as separate bands on non-reducing SDS-PAGE; also called Aβ1–42; Aβ oligomers; source: synthetic peptide; oligomers prepared from hexafluoroisopropanol film, DMSO, Hams F-12, 4 °C for 24 h, supernatant after 14,000 x g
Assay: pull-down; glutathione beads coated with 500 ng GST0 or GST fusion protein, incubated with 100 pM Aβ oligomers in 50 mM Tris-HCl pH7.5, 5 mM MgCl2, 20 mM KCl, 500 µg/mL BSA for 1 h at RT; washed, eluted under non-reducing conditions, SDS-PAGE and Western blot with 6E10
Settings: both partners purified

binding result: binds
B1: GST-Rs recombinant fusion protein (integrin β1 signal peptide, amino acids 1–20) (domain or fragment, UniProt P05556 1-20, looked up)
chain: MNLQPIFWIGLISSVCCVFA
notes: signal peptide in the construct; integrin β1 (ITGβ1) amino acids 1-20, PCR from pCMV6-XL5-ITGB1 (Origene); The fragment was cloned through EcoRI sites, so linker residues from the vector are likely; The printed forward primer (ATG AAT TTA CAA CC) encodes M-N-L-Q-P, which fits the human cDNA; also called Rs peptide; recombinant integrin β1 signal peptide
